In US9062353B2, “Electrically conductive polymer electrodes with incorporated viruses” (THE REGENTS OF THE UNIVERSITY OF CALIFORNIA, priority 2010, dated 2015):

How the values were obtained:
Conditions in all cases: phage-displayed peptide
PSMA dimer = molecular target: T1, PSMA dimer (Homo sapiens, UniProt Q04609); assay: phage-based ELISA, binding to PSMA dimer
T1 construct: purchased Molecular Express, Inc
Description: (§1) A Nunc Maxisorp plate was coated with 10 μg/mL PSMA monomer or dimer protein for 1 h. The coating solution was removed, and the plate was blocked for 1 h with 0.2% BSA in PBS and washed 5 times with PT (300 μL/well). The wells were then incubated with phage displaying PSMA-binding peptides (100 μL/well) at the indicated concentrations for 1 h. After washing five times with PT, the plate was incubated with HRP-conjugated anti-M13 phage antibody (100 μL, 1:5000) in 0.1% PBT buffer for 30 min, and washed three times with PT, and twice with PBS. The plate was then developed using an o-phenylenediamine dihydrochloride/H2O2 solution (100 μL, 1 mg mL-1/0.02%) in citric acid buffer (50 mM citric acid, 50 mM Na2HPO4, pH 5.0), and the HRP activity was measured as absorbance at 450 nm.
The previously reported PSMA binding peptides, PSMA-1 (amino acid sequence, […] (SEQ ID NO:3)) and PSMA-2 (amino acid sequence, […] (SEQ ID NO:4)), were compared for affinity to the homodimeric and monomeric isoforms of PSMA. Details regarding PSMA-1 and PSMA-2 may be found in Yang, L. M. et al., Anal. Chem. 2006, 78, 3265-3270, which is incorporated by reference herein. Though diagnostically irrelevant, the monomeric isoform of PSMA provides a control for the binding specificity. […] Chosen for its specificity to the PSMA dimer, the PSMA-2 sequence provided the template for an affinity maturation library targeting the PSMA dimer.

PSMA monomer = molecular target: T2, PSMA monomer (Homo sapiens, UniProt Q04609); assay: phage-based ELISA, binding to PSMA monomer
T2 construct: purchased Molecular Express, Inc
T2 sequence (Q04609 whole entry): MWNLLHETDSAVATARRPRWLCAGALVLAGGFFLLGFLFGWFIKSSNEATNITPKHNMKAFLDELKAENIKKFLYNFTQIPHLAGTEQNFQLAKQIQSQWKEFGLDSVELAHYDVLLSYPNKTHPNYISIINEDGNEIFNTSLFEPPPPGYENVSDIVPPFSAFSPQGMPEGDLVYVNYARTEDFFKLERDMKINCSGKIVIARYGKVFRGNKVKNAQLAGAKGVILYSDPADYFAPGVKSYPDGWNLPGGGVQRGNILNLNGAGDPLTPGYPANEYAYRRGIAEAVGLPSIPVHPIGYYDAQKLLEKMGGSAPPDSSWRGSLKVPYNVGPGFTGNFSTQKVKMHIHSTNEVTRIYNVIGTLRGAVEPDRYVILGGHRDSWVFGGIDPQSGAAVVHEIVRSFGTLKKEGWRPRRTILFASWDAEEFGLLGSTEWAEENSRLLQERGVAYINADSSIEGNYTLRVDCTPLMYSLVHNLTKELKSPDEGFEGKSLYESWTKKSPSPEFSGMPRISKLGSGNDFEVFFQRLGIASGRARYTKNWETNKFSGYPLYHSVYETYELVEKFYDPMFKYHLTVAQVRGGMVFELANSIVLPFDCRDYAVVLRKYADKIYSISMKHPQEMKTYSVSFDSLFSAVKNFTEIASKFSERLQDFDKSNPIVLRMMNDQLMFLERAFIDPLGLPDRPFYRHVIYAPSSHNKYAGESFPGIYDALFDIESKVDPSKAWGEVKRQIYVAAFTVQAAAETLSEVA
Description: as §1
The previously reported PSMA binding peptides, PSMA-1 (amino acid sequence, […] (SEQ ID NO:3)) and PSMA-2 (amino acid sequence, […] (SEQ ID NO:4)), were compared for affinity to the homodimeric and monomeric isoforms of PSMA. Details regarding PSMA-1 and PSMA-2 may be found in Yang, L. M. et al., Anal. Chem. 2006, 78, 3265-3270, which is incorporated by reference herein. Though diagnostically irrelevant, the monomeric isoform of PSMA provides a control for the binding specificity. […]

TfR = TfR (Homo sapiens, UniProt P02786); assay: binding specificity, transferrin receptor
Sequence of TfR (P02786 whole entry, species assumed): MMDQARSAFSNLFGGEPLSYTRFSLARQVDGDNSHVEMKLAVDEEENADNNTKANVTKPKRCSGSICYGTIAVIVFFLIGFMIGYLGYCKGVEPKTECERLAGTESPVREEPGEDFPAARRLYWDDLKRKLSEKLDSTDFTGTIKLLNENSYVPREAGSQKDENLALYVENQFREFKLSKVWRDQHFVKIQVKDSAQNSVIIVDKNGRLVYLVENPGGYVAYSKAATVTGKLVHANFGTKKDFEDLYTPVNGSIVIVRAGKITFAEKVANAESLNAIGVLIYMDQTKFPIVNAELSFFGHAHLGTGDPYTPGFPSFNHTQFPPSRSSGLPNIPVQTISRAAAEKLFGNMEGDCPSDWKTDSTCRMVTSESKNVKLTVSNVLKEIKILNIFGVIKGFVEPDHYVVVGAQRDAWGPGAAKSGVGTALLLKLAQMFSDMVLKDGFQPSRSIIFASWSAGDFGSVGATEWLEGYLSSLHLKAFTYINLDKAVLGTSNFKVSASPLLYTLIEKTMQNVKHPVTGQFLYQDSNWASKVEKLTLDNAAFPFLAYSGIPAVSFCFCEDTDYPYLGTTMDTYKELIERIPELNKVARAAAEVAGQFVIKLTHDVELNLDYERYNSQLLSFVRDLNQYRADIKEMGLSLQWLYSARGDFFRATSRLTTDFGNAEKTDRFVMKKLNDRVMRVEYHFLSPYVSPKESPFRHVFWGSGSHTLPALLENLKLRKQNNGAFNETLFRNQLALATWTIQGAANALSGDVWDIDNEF

casein = assay: binding specificity, casein

T1 sequence (Q04609 whole entry): as the sequence (Q04609 whole entry) above

Sequence | binding to PSMA dimer (PSMA dimer) | binding to PSMA monomer (PSMA monomer) | binding to TfR (TfR) | binding to casein (casein)
SECVEVFQNSCDW (displayed on M13 phage) [PSMA-3] | specific binding for the PSMA dimer | not PSMA monomer | not | not
CALCEFLG (displayed on M13 phage) [PSMA-1] | binds to both isoforms of PSMA | binds to both isoforms of PSMA |  | 
LDCVEVFQNSCDW (displayed on M13 phage) [PSMA-2] | binds with high affinity and specificity to the PSMA dimer |  |  | 
